# Source: US20180327494A1 (SUZHOU ALPHAMAB, published 2018)
# Substitutions are numbered along the chain they refer to.
# B1: PDL1-10 dAb (VHH)
# VHH: QVQLQESGGGSVQAGGSLRLSCAASGNIVSSYCMGWFRQAPGKERVGVAAIDSDGTTKYADSMKGRFTISKDNAKNTLDLQMNSLKPEDTAMYYCVARLNCPGPVDWVPMFPYRGQGTQVTVSS
# notes: camel heavy chain single domain antibody expressed in E. coli, purified on nickel; also called antibody No. 10; not shown: His tag from expression vector PET32b
# B2: PDL1-87 dAb (VHH)
# VHH: QVQLQESGGGSVQAGGSLKLSCAASGYIFSSCGMGWYRQAPGKERELVSTISSDGTTSYADSVKGRFTISQDNAKNTLYLQMNSLKTEDTAVYYCVADCPPIPEFTSCSGGYCLSGDYWGQGTQVTVSS
# notes: camel heavy chain single domain antibody expressed in E. coli, purified on nickel; also called antibody No. 87; not shown: His tag from expression vector PET32b
# B3: PDL1-69 dAb (VHH)
# VHH: QVQLQESGGGSVQAGGSLRLSCAVQRNISSSYCMAWFRQAPGKQRERVDKILTTPGNTYLADSVKGRFTISQNNAKSTVYLQMNSLKPEDTAMYYCAADSFQKPTCTVVASWPAFQYWGQGTQVTVSS
# notes: camel heavy chain single domain antibody expressed in E. coli, purified on nickel; also called antibody No. 69; not shown: His tag from expression vector PET32b
# B4: PDL1-94 dAb (VHH)
# VHH: B1 VHH with G26L, V29F, E44Q, A50T, K58R, A60V, M63V, V96A
# notes: camel heavy chain single domain antibody expressed in E. coli, purified on nickel; also called antibody No. 94; not shown: His tag from expression vector PET32b
# B5: PDL1-27 dAb (VHH)
# VHH: QVQLQESGGGSVQAGGSLRLSCAASGNISSRRCMAWFRQAPGKERERVANILTTTGNTYLADSVKGRFTISQNNAKSTVYLQMNSLKPEDTAMYYCAADSFHDPTCTVVASSGAFQYWGQGTQVTVSS
# notes: camel heavy chain single domain antibody expressed in E. coli, purified on nickel; also called antibody No. 27; not shown: His tag from expression vector PET32b
# B6: PDL1-81 dAb (VHH)
# VHH: QVQLQESGGGSVQAGGSLRLSCAASGNIIRVRCMAWFRQAPGKERERGPNILTTTISTYLADSVKGRFTISQNNAKSTVYLQMNSLKPEDTAMYYCAADSFGYPTCPGPASSGAFQYWGQGTQVTVSS
# notes: camel heavy chain single domain antibody expressed in E. coli, purified on nickel; also called antibody No. 81; not shown: His tag from expression vector PET32b
# B7: PDL1-38 dAb (VHH)
# VHH: QVQLQESGGGSVQAGGSLRLSCAVSGFISSRRCMGWFRQAPGKERVGVANITGTGNTYLADSVKGRFTISQNNAKSTVYLQMNSLKPEDTAMYYCAADSFPTCTVVASSGAFQYWGQGTQVTVSS
# notes: camel heavy chain single domain antibody expressed in E. coli, purified on nickel; also called antibody No. 38; not shown: His tag from expression vector PET32b
# Target: T1, Mouse PDL1-Fc protein (mouse)
# T1 construct: expressed in HEK293 cells; also called mouse PDL1-Fc fusion protein; mice PDL1-Fc
# Assay: ELISA, mouse PDL1-Fc coated, anti-His detection
row,binding result,Binder
1,no binding (tested: 100 ng per well),B1

# Target: T2, Fc protein
# T2 construct: counter-screen antigen for the Fc moiety of PDL1-Fc
# Assay: ELISA, Fc protein coated, 100 ng dAb per well
row,OD (against Fc),Binder
1,0.124 OD (405 nm),B2
2,0.165 OD (405 nm),B3
3,0.099 OD (405 nm),B1
4,0.085 OD (405 nm),B4
5,0.08 OD (405 nm),B5
6,0.085 OD (405 nm),B6
7,0.065 OD (405 nm),B7

# Target: T3, PDL1-Fc fusion protein (human)
# T3 construct: expressed in CHO or HEK293 cells; also called Human PDL1-Fc; recombinant human PDL1-Fc
# Assay: ELISA, ratio of OD on PDL1-Fc to OD on Fc protein
row,OD (PDL1/Fc) [ratio],Binder
1,18,B2
2,7.1,B3
3,8.63,B1
4,10.3,B4
5,32.8,B5
6,31.5,B6
7,30.5,B7

# Target: T3, PDL1-Fc fusion protein
# Assay: ELISA, ratio of OD on PDL1-Fc to OD of blank control
row,OD (PDL1/blank) [ratio],Binder
1,41.4,B2
2,21.7,B3
3,15.8,B1
4,16.2,B4
5,48.5,B5
6,49.6,B6
7,36.7,B7

# Target: T3, PDL1-Fc fusion protein
# Assay: ELISA, PDL1-Fc coated, 100 ng dAb per well, anti-His detection
row,OD (against PDL1),Binder
1,2.24 OD (405 nm),B2
2,1.17 OD (405 nm),B3
3,0.854 OD (405 nm),B1
4,0.875 OD (405 nm),B4
5,2.62 OD (405 nm),B5
6,2.68 OD (405 nm),B6
7,1.98 OD (405 nm),B7

# Target: T3, PDL1-Fc fusion protein
# Assay: SPR, BIAcore X100, PDL1-Fc on CM5 chip, antibody as analyte, 25 C
row,Kd [nM],Binder
1,0.771,B5
2,0.548,B6

# Target: T3, PDL1-Fc fusion protein
# Assay: ELISA, dAb coated 0.5 ug/well, dilution series of PDL1-Fc, anti-human IgG-Fc-HRP
row,EC50 [ng/mL],Binder
1,~5,B5

# Target: T3, PDL1-Fc fusion protein
# Assay: competitive ELISA, PDL1-Fc coated, dilution series of antibody with 100 ug/mL PD1-Fc-Biotin (competitor)
row,IC50 [µg/mL],Binder
1,~0.917,B5

# Target: T3, PDL1-Fc fusion protein
# Assay: competitive ELISA, PDL1-Fc coated, 100 ng dAb and 10 ug PD1-Fc-Biotin (competitor); remaining PD1-Fc-Biotin signal
row,OD,Binder
1,0.897 OD (405 nm),B2
2,0.126 OD (405 nm),B1
3,0.161 OD (405 nm),B5
4,0.429 OD (405 nm),B6

# Target: T4, human PDL1 protein on the cell membrane (human, UniProt Q9NZQ7 19-290)
# T4 construct: whole, on cells; also used here for Raji-PDL1 cells and for native PDL1 on lung cancer tissue sections; also called Raji-PDL1
# Assay: flow cytometry competition: 293-PDL1 cells, single domain antibody plus hPD-1-Fc-biotin 0.3 µg (blocked ligand), SA-PE; right panel
row,binding result,Binder
1,binds,B1

# Target: T3, PDL1-Fc fusion protein
# Assay: competitive ELISA: PDL1-Fc coated 0.5 µg/well, dilution series of the antibody with PD1-Fc-Biotin 100 µg/mL (blocked ligand), SA-HRP, OD405; the sheet labels it EC50, paragraph 198 calls it IC50; unit from the axis
row,IC50 [µg/mL],Binder
1,0.917,B5

# Target: T3, PDL1-Fc fusion protein
# Assay: ELISA: plate coated with the single domain antibody 0.5 µg/well, dilution series of PDL1-Fc, anti-human IgG-Fc-HRP, OD405, four-parameter fit; unit from the axis 'Log Conc(ng/mL)', the concentration of PDL1-Fc
row,EC50 [ng/mL],Binder
1,5.68,B5
